B1: CPEB3 Ribozyme (parent)
chain: UAACAGGGGGCCACAGCAGAAGCGUUCACGUCGCAGCCCCUGUCAGAUUCUGGUGAAUCUGCGAAUUCUGCUGUAUAUCUC

Variants of: B1
Experiment: self-cleavage, relative activity (ratio to wild type); higher = more cleavage; in vitro, sequencing
How it was run: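 After error-prone PCR and barcoding, CPEB3 ribozyme mutant libraries were transcribed with T7 RNA polymerase at 37°C for 5 hours, then given 15 min with DNase I before an EDTA stop, and they cleaved during both steps. Reverse transcription with template switching preceded Illumina sequencing. Relative activity divides a variant's cleaved/total read fraction by the unmutated ribozyme's. At least 5 reads were required per variant, and three batches were averaged.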

Row | Variant | self-cleavage
1 | A64U C79A | 0.36
2 | A64U C79U | 0.39
3 | A65G G73C | 0.74
4 | A65G G73U | 1.19
5 | A65G G73A | 1.06
6 | C62G A77U | 0.19
7 | A64C U69G | 0.47
8 | A64C U69C | 0.4
9 | A65U U78C | 0.18
10 | A64G U66C | 0.34
11 | A64G U66A | 0.32
12 | C62G A64G | 0.22
13 | C62G A64U | 0.32
14 | C62G A64C | 0.19
15 | A65G U74A | 0.86
16 | A65G U74C | 0.79
17 | A65G U74G | 0.89
18 | A64U G73C | 0.67
19 | A64U G73A | 0.98
20 | A64C U80C | 0.38
21 | A65U C68A | 0.21
22 | A65U C68U | 0.31
23 | A65G C81A | 0.48
24 | A65G C81U | 0.63

Row | Variant | self-cleavage
25 | G63U U66C | 0.42
26 | G63U U67C | 0.29
27 | G63U U67A | 0.58
28 | G63A G73A | 1.34
29 | C62U A75C | 0.44
30 | C62U A75G | 0.22
31 | A64U U78G | 0.35
32 | A64U U78C | 0.31
33 | A64U U78A | 0.49
34 | A65U U67A | 0.02
35 | A65U U67C | 0.28
36 | A64C U66C | 0.24
37 | A65C C79G | 0.14
38 | C62U U66C | 0.26
39 | C62U U66A | 0.18
40 | A65G U80C | 0.59
41 | A65G U80A | 0.53
42 | A65G U80G | 0.66
43 | A65U U72G | 0.33
44 | A65U U72C | 0.36
45 | A65U U72A | 0.23
46 | A64C U78C | 0.28
47 | A65U U69A | 0.3
48 | A65U U69C | 0.45

Row | Variant | self-cleavage
49 | A64U A75G | 0.35
50 | A64U A75C | 0.5
51 | A64U A75U | 0.45
52 | A65U U76C | 0.24
53 | A65U U76A | 0.19
54 | A64G A77U | 1.03
55 | A64G A77G | 0.84
56 | C62A A64G | 0.25
57 | A64U U76A | 0.32
58 | A64U U76C | 0.4
59 | A64U U76G | 0.24
60 | C62U C71A | 0.26
61 | C62U C71U | 0.22
62 | C62G U80A | 0.25
63 | A64G U74G | 1.26
64 | A64G U74A | 1.2
65 | A64G U74C | 1.15
66 | U66A U69A | 0.32
67 | A65U A77G | 0.2
68 | A65U A77U | 0.25
69 | A64G U72G | 0.87
70 | A64G U72C | 0.91
71 | A64G U72A | 0.67
72 | G63U A65G | 0.5

Row | Variant | self-cleavage
73 | G63U A65U | 0.51
74 | A64G U67A | 0.38
75 | A64G U67C | 0.25
76 | A64G U67G | 0.44
77 | G63U U78A | 0.98
78 | G63U U78C | 0.96
79 | A64C G70A | 0.33
80 | U66A A77G | 0.45
81 | U66A A77U | 0.65
82 | G63U A77G | 1.24
83 | A65C U66C | 0.11
84 | A64G G70A | 0.37
85 | A64G G70U | 0.29
86 | A64G G70C | 0.21
87 | A64U A77U | 0.46
88 | A64U A77G | 0.39
89 | A65C U72A | 0.27
90 | A65C U72C | 0.35
91 | G63U A64U | 0.43
92 | G63U A64G | 0.79
93 | C62A U67A | 0.32
94 | G63C U72A | 0.4
95 | G63C U72C | 1.14
96 | A64C U72A | 0.27

Row | Variant | self-cleavage
97 | A64C U72C | 0.48
98 | C62U C68U | 0.21
99 | C62U U80C | 0.28
100 | C62U U80A | 0.3
101 | G63A A75G | 0.49
102 | G63A A75U | 0.84
103 | G63U C81U | 0.99
104 | A64C A65G | 0.16
105 | A64C A65U | 0.09
106 | C62G C71U | 0.38
107 | G63A C68U | 0.96
108 | G63C | 0.92
109 | G63U | 1.09
110 | G63A | 0.87
111 | A65C A75G | 0.11
112 | C62U C79G | 0.2
113 | U66A | 0.51
114 | A64U C68A | 0.37
115 | G63C U74C | 1.21
116 | A65G G70A | 0.32
117 | C62G U76C | 0.29
118 | G63A U67A | 0.31
119 | G63A U67C | 0.3
120 | G61C U80C | 0.5

Row | Variant | self-cleavage
121 | C62U U78A | 0.28
122 | C62U U78C | 0.2
123 | G63A U72A | 0.59
124 | G63A U72G | 0.84
125 | G63A U72C | 0.91
126 | G63A U78A | 0.93
127 | G63A U78C | 0.82
128 | G63A A65G | 0.38
129 | A65C A77G | 0.19
130 | A64C C81U | 0.43
131 | G61C U66C | 0.54
132 | G61C U78C | 0.33
133 | G63C U76C | 1.03
134 | C62U U67C | 0.31
135 | C62U U67A | 0.29
136 | A64U U66C | 0.31
137 | A64U U66A | 0.27
138 | A64U U66G | 0.13
139 | C62A A77G | 0.24
140 | G63U U76A | 1.23
141 | G63U U76C | 1.12
142 | G63U U76G | 1.17
143 | A65U C81A | 0.43
144 | G61U U72G | 0.53

Row | Variant | self-cleavage
145 | G61U U72C | 0.72
146 | A64C A77U | 0.25
147 | A64C A77G | 0.17
148 | G63U G70A | 0.62
149 | A64U C71A | 0.18
150 | C62A U69G | 0.33
151 | C62A U69C | 0.34
152 | C62A U69A | 0.31
153 | A65C U74C | 0.3
154 | A65U | 0.33
155 | A65C | 0.29
156 | A65G | 0.52
157 | U66A A75U | 0.68
158 | U66A U67A | 0.26
159 | U66A U67C | 0.33
160 | C62U A64G | 0.19
161 | C62U A64U | 0.29
162 | A65G U69C | 0.34
163 | A65G U69A | 0.33
164 | G63C U78A | 1.01
165 | A65G U76G | 0.53
166 | A65G U76C | 0.53
167 | A65G U76A | 0.48

Source: the RNAGym collection of RNA variant scans (doi:10.1093/nar/gkz1192)
